Here are results for three substances from publication doi:10.1101/2023.08.11.552962.

Experiment [1] deals with MacMCM^E391Q, Walker B mutant of MacMCM (Mancarchaeum acidiphilum). Description: SEC.
The target of experiment [2] is MacMCM^ΔWHD.E391Q, MacMCM without the winged helix domain and with the Walker B mutation E391Q (Mancarchaeum acidiphilum). Description: SEC.
The target is the same in experiment [3]. Briefly: crystal structure.
Experiment [4] has as its target MacMCM, minichromosome maintenance protein from Mancarchaeum acidiphilum (Mancarchaeum acidiphilum). Description: SEC.

“MacMCM^E391Q, Walker B mutant of MacMCM (enzyme)”: in experiment [1], the stoichiometry N is 6. Consider “MacMCM^ΔWHD.E391Q, MacMCM without the winged helix domain and with the Walker B mutation E391Q (domain or fragment)”, for which the stoichiometry N in experiment [2] and in experiment [3] was 6 throughout. In experiment [4], “MacMCM, minichromosome maintenance protein from Mancarchaeum acidiphilum (enzyme)” registered a stoichiometry N of 6.
